This is an account of results in patent US20160000054A1, “HUMAN-DERIVED MUTANTS OF THE dSOD1 GENE IN DROSOPHILA AND METHODS OF MAKING AND USING” (priority 2014, published 2016).

Holding throughout (format): in vivo, Drosophila melanogaster
Test [1] has as its system G85R/H71Y. The test is described as follows: Adult eclosion (emergence from the pupal case). The following applies: G85R/H71Y flies; expression of Gbb; 15% without Gbb. An excerpt:
(§1) The genetically accurate model of ALS disclosed herein, can be used to elucidate not only the behavioral and electrophysiological changes, but also the cellular and molecular basis of disease progression. ALS-associated loss in motor neuron function and subsequent cell death has been attributed to defects in a number of processes from protein aggregation, increases is axonal membrane excitability, mitochondrial dysfunction, to changes in RNA metabolism and general metabolic homeostasis (49-55). This model system was used to explore the involvement of these processes in disease progression. […] The time of death varied between the different dSod1 mutations with <0.1% dSod1-G85R adults emerging from the pupal case (a feat requiring considerable muscle strength) to 33% emergence by the less severe dSod1-H71Y followed by death within 7-10 days of adulthood. […] Characterization of this progressive loss in motor function in detail during can be performed using immunohistochemical markers of muscle, as well as Drosophila lines expressing GFP-tagged muscle proteins (Mhc-mCD8-GFP) that allow visualization of muscles in living animals. Examination of the innervation of the muscles in controls and mutants is done by concomitant labeling of the MNs (CD8-RFP driven in MNs). […]

The subject of test [2] is dSod1-G85R and dSod1-H71Y mutant larvae. As to the kind of experiment: Larval locomotor (motility) defect in dSod1 mutant larvae. The following applies: expression of Gbb.
Description: as §1

Test [3] concerns dSod1-G85R mutants. As to the kind of experiment: Spontaneous motor neuron activity recorded from larval muscles with motor circuit intact. The following applies: expression of Gbb. An excerpt: Consistent with the reduced motility observed in dSod1-G85R late 3rd instar larvae, there was a concordant reduction in the spontaneous activity of MNs when recorded from larval muscles in preparations with the motor circuit intact (brain and ventral nerve cord (VNC) remain attached to the body wall muscles). […] These analyses, coupled with studies on muscle structure can provide a well-defined depiction of disease progression. While ALS paralysis results from a dramatic degeneration of MNs and atrophied muscles, it is unclear when and where the decline in function originates. It could begin in a specific set of cells or the loss of function could be a systemic effect. This can be addressed using the Drosophila model system disclosed herein. For example, directed expression of channel-rhodopsin (ChR2) to specific cells or neurons can be done, followed by excitation of those cells with a flash of light and recording of the response in the circuit output of a particular larval muscle. Driving UAS-ChR2 within different neurons (OK371Gal4 in motorneurons, ChaGal4 in cholinergic neurons, specific neural Gal4 lines from Janeila Farm collection) (55) can be done to address the integrity of the neural circuit and interrogate the function of individual neurons.
Gbb, the Drosophila orthologue of vertebrate BMPs 5, 6, 7, acted as a retrograde signal at the NMJ (56). […]

B1: Gbb: the Drosophila orthologue of vertebrate BMPs 5, 6, 7; expressed genetically in the flies, not dosed (protein, UniProt P27091 336-455, looked up)
Protein 60A: SVSPNNVPLLEPMESTRSCQMQTLYIDFKDLGWHDWIIAPEGYGAFYCSGECNFPLNAHMNATNHAIVQTLVHLLEPKKVPKPCCAPTRLGALPVLYHLNDENVNLKKYRNMIVKSCGCH
Regarding B1, in test [1], the eclosion stood at 45%. Moreover, the locomotor defect entry in test [2] (dSod1-G85R mutant larvae) and in test [2] (dSod1-H71Y mutant larvae) was “rescued” throughout. In addition, in test [3], the “spontaneous MN activity” value is reported as “restored normal spontaneous MN activity”.
